The record followed here is publication PMC5809609.

The target of the test is recombinant Myodes glareolus IFN-γ (recMgIFN-γ) (Myodes glareolus (bank vole)). Kind of test: SEC; analytical gel filtration of 200 µl purified recMgIFN-γ in PBS at room temperature on a calibrated Superdex 75 10/300 GL column, flow rate 0.75 ml/min; detection at 230 and 260 nm. A general note: Size exclusion chromatography separates by hydrodynamic size, large species first.

On to “recombinant Myodes glareolus IFN-γ (recMgIFN-γ) (natural protein)”, for which the stoichiometry N came to 2.

In general, stoichiometry N refers to a count of units in the complex or per binding partner.
